Data taken from US20210292393A1 (published 2021).
Like-named read-outs stand apart in the source and are kept apart here.

How the values were obtained:
Experiment in all cases: BLI
[1] = molecular target: T1, SARS-CoV-2 spike ectodomain (UniProt P0DTC2 14-1213)
[2] = molecular target: T1, SARS-CoV-2 spike ectodomain; remark: listed apart in the source
[3] = molecular target: T1, SARS-CoV-2 spike ectodomain; remark: listed apart in the source

B1: Fab 494 (Fab, V domains shown)
VH: EVQLVESGGGLVQPGGSLRLSCAASGFTVSSNYMSWVRQAPGKGLEWVSVIYSGGSTFYADSVKGRFTISRDNSKNTLYLQMNSLRAEDTAVYYCARDSGDQLLDYWGQGTLVTVSS
VL: DIQLTQSPSFLSASVGDRVTITCRASQGISSYLAWYQQKPGKAPKLLIYAASTLQSGVPSRFSGSGSGTEFTLTISSLQPEDFATYYCQQLNSYPPFTFGPGTKVDIKR
B1 was tested, and the Kd [1] was 5.9 nM.

B2: Fab 419 (Fab, V domains shown)
VH: QVQLVQSGAEVKKPGASVKVSCKASGYTFTSYYMHWVRQAPGQGLEWMGIINPSGGSTSYAQKFQGRVTMTRDTSTSTVYMELSSLRSEDTAVYYCARDWTQSSGYDYYYGLDVWGQGTTVTVSS
VL: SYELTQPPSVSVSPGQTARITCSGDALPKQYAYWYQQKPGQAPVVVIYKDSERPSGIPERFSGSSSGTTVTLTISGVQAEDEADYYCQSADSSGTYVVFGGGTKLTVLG
With B2 the Kd [2] was 365 nM.

B3: Fab 483 (Fab, V domains shown)
VH: QVQLQESGPGLVKPSETLSLTCTVSGGSISSYYWSWIRQPPGKGLEWIGYIYYSGSTNYNPSLKSRVTISVDTSKNQFSLKLSSVTAADTAVYYCARAPEEKSSEIGELVGWGWFDPWGQGTLVTVSS
VL: not shown
Work on B3 yielded a Kd [3] of 23.1 nM.
